Data taken from patent US20190241648A1 (STATEN BIOTECHNOLOGY B V, published 2019).
Ends that are not written are not given here.

How the values were obtained:
Test in all cases: peptide microarray
ApoC3 peptide … E63A = ApoC3 peptide … E63A (human, cyclic constrained)
Experimental: (§1) F64 was completely variable.
(§2) Pre: staining of one of the ApoC3 peptide microarrays was done with the secondary antibody goat anti-human IgG (Fe) DyLight680 (1:5000) and control antibody mouse monoclonal anti-HA (12CA5) DyLight800 (1:2000) to investigate background interactions of the secondary antibody with the antigen-derived peptides that could interfere with the main assays. Subsequent incubation of other ApoC3 peptide microarrays with antibody samples was followed by staining with secondary and control antibodies as well as read-out at scanning intensities of 7/7 (red/green). The additional HA peptides framing the peptide arrays were stained as internal quality control to confirm the assay quality and the peptide microarray integrity.

ApoC3 peptide … F64A = target: T1, ApoC3 peptide … F64A (human, not fully specified (bridges); also: cyclic constrained)
T1 peptide: DKFSEAWDLDPEV
Experimental: as §1, §2

ApoC3 peptide … D66A = target: T2, ApoC3 peptide … D66A (human, not fully specified (bridges); also: cyclic constrained)
T2 peptide: DKFSEFWALDPEV
Experimental: as §1, §2

ApoC3 peptide … S62D = ApoC3 peptide … S62D (human, cyclic constrained)
Experimental: as §1, §2

ApoC3 peptide … D59E = target: T3, ApoC3 peptide … D59E (human, cyclic constrained)
T3 peptide: EKFSEFWDLDPEV
Experimental: as §1, §2

ApoC3 peptide … E63F = ApoC3 peptide … E63F (human, cyclic constrained)
Experimental: as §1, §2

ApoC3 peptide … L67F = target: T4, ApoC3 peptide … L67F (human, not fully specified (bridges); also: cyclic constrained)
T4 peptide: DKFSEFWDFDPEV
Experimental: as §1, §2

ApoC3 peptide … D68G = target: T5, ApoC3 peptide … D68G (human, cyclic constrained)
T5 peptide: DKFSEFWDLGPEV
Experimental: as §1, §2

ApoC3 peptide … P69G = target: T6, ApoC3 peptide … P69G (human, not fully specified (bridges); also: cyclic constrained)
T6 peptide: DKFSEFWDLDGEV
Experimental: as §1, §2

ApoC3 peptide … D66H = target: T7, ApoC3 peptide … D66H (human, not fully specified (bridges); also: cyclic constrained)
T7 peptide: DKFSEFWHLDPEV
Experimental: as §1, §2

ApoC3 peptide … L67H = target: T8, ApoC3 peptide … L67H (human, not fully specified (bridges); also: cyclic constrained)
T8 peptide: DKFSEFWDHDPEV
Experimental: as §1, §2

ApoC3 peptide … W65I = target: T9, ApoC3 peptide … W65I (human, not fully specified (bridges); also: cyclic constrained, ring type and places not given here)
T9 peptide: DKFSEFIDLDPEV
Experimental: as §1, §2

ApoC3 peptide … D66I = target: T10, ApoC3 peptide … D66I (human, not fully specified (bridges); also: cyclic constrained)
T10 peptide: DKFSEFWILDPEV
Experimental: as §1, §2

ApoC3 peptide … V71I = ApoC3 peptide … V71I (human, cyclic constrained)
Experimental: as §1, §2

ApoC3 peptide … F64K = target: T11, ApoC3 peptide … F64K (human, not fully specified (bridges); also: cyclic constrained)
T11 peptide: DKFSEKWDLDPEV
Experimental: as §1, §2

ApoC3 peptide … E70K = target: T12, ApoC3 peptide … E70K (human, not fully specified (bridges); also: cyclic constrained)
T12 peptide: DKFSEFWDLDPKV
Experimental: as §1, §2

ApoC3 peptide … E63L = ApoC3 peptide … E63L (human, cyclic constrained)
Experimental: as §1, §2

ApoC3 peptide … E63M = ApoC3 peptide … E63M (human, cyclic constrained)
Experimental: as §1, §2

ApoC3 peptide … L67M = target: T13, ApoC3 peptide … L67M (human, not fully specified (bridges); also: cyclic constrained)
T13 peptide: DKFSEFWDMDPEV
Experimental: as §1, §2

ApoC3 peptide … D68M = target: T14, ApoC3 peptide … D68M (human, cyclic constrained)
T14 peptide: DKFSEFWDLMPEV
Experimental: as §1, §2

ApoC3 peptide … V71M = ApoC3 peptide … V71M (human, cyclic constrained)
Experimental: as §1, §2

ApoC3 peptide … D59N = target: T15, ApoC3 peptide … D59N (human, cyclic constrained)
T15 peptide: NKFSEFWDLDPEV
Experimental: as §1, §2

ApoC3 peptide … P69N = ApoC3 peptide … P69N (human, cyclic constrained)
Experimental: as §1, §2

ApoC3 peptide … E63P = ApoC3 peptide … E63P (human, cyclic constrained)
Experimental: as §1, §2

ApoC3 peptide … V71Q = ApoC3 peptide … V71Q (human, cyclic constrained)
Experimental: as §1, §2

ApoC3 peptide … K60R = target: T16, ApoC3 peptide … K60R (human, not fully specified (bridges); also: cyclic constrained)
T16 peptide: DRFSEFWDLDPEV
Experimental: as §1, §2

ApoC3 peptide … F61R = target: T17, ApoC3 peptide … F61R (human, not fully specified (bridges); also: cyclic constrained)
T17 peptide: DKRSEFWDLDPEV
Experimental: as §1, §2

ApoC3 peptide … E70R = target: T18, ApoC3 peptide … E70R (human, not fully specified (bridges); also: cyclic constrained)
T18 peptide: DKFSEFWDLDPRV
Experimental: as §1, §2

ApoC3 peptide … V71R = ApoC3 peptide … V71R (human, cyclic constrained)
Experimental: as §1, §2

ApoC3 peptide … D66S = target: T19, ApoC3 peptide … D66S (human, not fully specified (bridges); also: cyclic constrained)
T19 peptide: DKFSEFWSLDPEV
Experimental: as §1, §2

ApoC3 peptide … F61T = target: T20, ApoC3 peptide … F61T (human, not fully specified (bridges); also: cyclic constrained)
T20 peptide: DKTSEFWDLDPEV
Experimental: as §1, §2

ApoC3 peptide … F64T = target: T21, ApoC3 peptide … F64T (human, not fully specified (bridges); also: cyclic constrained)
T21 peptide: DKFSETWDLDPEV
Experimental: as §1, §2

ApoC3 peptide … D59V = target: T22, ApoC3 peptide … D59V (human, not fully specified (bridges); also: cyclic constrained)
T22 peptide: VKFSEFWDLDPEV
Experimental: as §1, §2

ApoC3 peptide … W65V = target: T23, ApoC3 peptide … W65V (human, not fully specified (bridges); also: cyclic constrained, ring type and places not given here)
T23 peptide: DKFSEFVDLDPEV
Experimental: as §1, §2

ApoC3 peptide … E70V = target: T24, ApoC3 peptide … E70V (human, cyclic constrained)
T24 peptide: DKFSEFWDLDPVV
Experimental: as §1, §2

ApoC3 peptide … W65Y = target: T25, ApoC3 peptide … W65Y (human, not fully specified (bridges); also: cyclic constrained, ring type and places not given here)
T25 peptide: DKFSEFYDLDPEV
Experimental: as §1, §2

B1: anti-ApoC3 antibody 6A6 (antibody, V domains shown)
VH: EVQLVESGGGLVQPGGSLRLSCAASGFTFSSYAGRWVRQVPGKGLEWVSSINAGGGSTSYADSVKGRFTISRDNAKNTLYLQMNSLKPEDTAKYYCTQNSYRYWGQGTRVAVSS
VL: DVVLTQTPGSLSVVPGESASISCKASQSLIHTDGKTYLYWLLQKPGQRPQLLIYQVSSHESGVPDRFTGSGSGTDFTLKISGVKAEDAGVYYCAQATYNPRTFGQGTKLEIK
notes: it was detected with goat anti-human IgG (Fc); also called mAb 6A6; llama antibody 6A6
- % of binding to wild-type peptide (ApoC3 peptide … E63A): 36.7%
- % of binding to wild-type peptide (ApoC3 peptide … F64A): 166%
- % of binding to wild-type peptide (ApoC3 peptide … D66A): 0%
- % of binding to wild-type peptide (ApoC3 peptide … S62D): 35%
- % of binding to wild-type peptide (ApoC3 peptide … D59E): 170%
- % of binding to wild-type peptide (ApoC3 peptide … E63F): 8.5%
- % of binding to wild-type peptide (ApoC3 peptide … L67F): 26.3%
- % of binding to wild-type peptide (ApoC3 peptide … D68G): 0%
- % of binding to wild-type peptide (ApoC3 peptide … P69G): 16.3%
- % of binding to wild-type peptide (ApoC3 peptide … D66H): 0%
- % of binding to wild-type peptide (ApoC3 peptide … L67H): 7.67%
- % of binding to wild-type peptide (ApoC3 peptide … W65I): 20.3%
- % of binding to wild-type peptide (ApoC3 peptide … D66I): 0%
- % of binding to wild-type peptide (ApoC3 peptide … V71I): 54.3%
- % of binding to wild-type peptide (ApoC3 peptide … F64K): 107%
- % of binding to wild-type peptide (ApoC3 peptide … E70K): 0%
- % of binding to wild-type peptide (ApoC3 peptide … E63L): 10.1%
- % of binding to wild-type peptide (ApoC3 peptide … E63M): 43.5%
- % of binding to wild-type peptide (ApoC3 peptide … L67M): 43.4%
- % of binding to wild-type peptide (ApoC3 peptide … D68M): 0%
- % of binding to wild-type peptide (ApoC3 peptide … V71M): 105%
- % of binding to wild-type peptide (ApoC3 peptide … D59N): 77.5%
- % of binding to wild-type peptide (ApoC3 peptide … P69N): 32.7%
- % of binding to wild-type peptide (ApoC3 peptide … E63P): 138%
- % of binding to wild-type peptide (ApoC3 peptide … V71Q): 81.4%
- % of binding to wild-type peptide (ApoC3 peptide … K60R): 105%
- % of binding to wild-type peptide (ApoC3 peptide … F61R): 35.6%
- % of binding to wild-type peptide (ApoC3 peptide … E70R): 0%
- % of binding to wild-type peptide (ApoC3 peptide … V71R): 47.5%
- % of binding to wild-type peptide (ApoC3 peptide … D66S): 0%
- % of binding to wild-type peptide (ApoC3 peptide … F61T): 56.3%
- % of binding to wild-type peptide (ApoC3 peptide … F64T): 215%
- % of binding to wild-type peptide (ApoC3 peptide … D59V): 65.1%
- % of binding to wild-type peptide (ApoC3 peptide … W65V): 24%
- % of binding to wild-type peptide (ApoC3 peptide … E70V): 0.27%
- % of binding to wild-type peptide (ApoC3 peptide … W65Y): 26.7%
